# B1: S5-PmnH (protein)
# chain: MSNDNEVPGSMVIVAQGPDDQYAYEVPPIDSAAVAGNMFGDLIQREIYLQKNIYYPVRSIFEQGTKEKKEINKKVSDQVDGLLKQITQGKREATRQERVDVMSAVLHKMESDLEGYKKTFTKGPFIDYEKQSSLSIYEAWVKIWEKNSWEERKKYPFQQLVRDELERAVAYYKQDSLSEAVKVLRQELNKQKALKEKEDLSQLERDYRTRKANLEMKVQSELDQAGSALPPLVSPTPEQWLERATRLVTQAIADKKQLQTTNNTLIKNSPTPLEKQKAIYNGELLVDEIASLQARLVKLNAETTRRRTEKELTPDEKAAYTDAVSFVSTANEQMLQKYGANLSKVAQDMQAEIAGKKVRSYAEAMATFEKISANPAMKLNALDTQAVVDALNALDKASFADNITRLGKAFGVVGKVVQAEAIREKTVSGFQTGDWKPLMLELEAMAVGTGAGILLATSMAFFFPVFASAAAGVVVVALMMAATAAYFDAAKVDEINNLILN
# modifications: Chimeric S5-PmnH
# Experiments:
# [1] = test system: P. aeruginosa strains; experiment: agar disc-diffusion assay, panel of 25 strains; type: cell-based
# In short: (§1)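 Bacteria grown overnight in CAA are normalized to OD595=1.0, diluted 100-fold and spread evenly on CAA agar plates. Paper discs carry 0.3-30 μg of chimeric pyocin, and zones of inhibition are examined after an overnight 37° C incubation.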
# [2] = test system: P. aeruginosa HP6; experiment: agar disc-diffusion assay; type: cell-based; conditions: strain HP6; 0.3, 3 and 30 μg of protein spotted on discs on CAA agar lawn, overnight
# In short: as §1
# [3] = test system: P. aeruginosa HP52; experiment: agar disc-diffusion assay; type: cell-based; conditions: strain HP52; 0.3, 3 and 30 μg of protein spotted on discs on CAA agar lawn, overnight
# In short: as §1
# [4] = test system: P. aeruginosa Bu002; experiment: agar disc-diffusion assay; type: cell-based; conditions: strain Bu002; 0.3, 3 and 30 μg of protein spotted on discs on CAA agar lawn, overnight
# In short: as §1
# [5] = test system: P. aeruginosa NCTC 13437; experiment: agar disc-diffusion assay; type: cell-based; conditions: strain NCTC 13437; 0.3, 3 and 30 μg of protein spotted on discs on CAA agar lawn, overnight
# In short: as §1
# [6] = test system: P. aeruginosa HP40; experiment: agar disc-diffusion assay; type: cell-based; conditions: strain HP40; 0.3, 3 and 30 μg of protein spotted on discs on CAA agar lawn, overnight
# In short: as §1
# [7] = test system: P. aeruginosa HP1; experiment: agar disc-diffusion assay; type: cell-based; conditions: strain HP1; 0.3, 3 and 30 μg of protein spotted on discs on CAA agar lawn, overnight
# In short: as §1
# [8] = test system: P. aeruginosa ATCC 19660; experiment: agar disc-diffusion assay; type: cell-based; conditions: strain ATCC 19660; 0.3, 3 and 30 μg of protein spotted on discs on CAA agar lawn, overnight
# In short: as §1
# [9] = test system: P. aeruginosa NCTC 13921; experiment: agar disc-diffusion assay; type: cell-based; conditions: strain NCTC 13921; 0.3, 3 and 30 μg of protein spotted on discs on CAA agar lawn, overnight
# In short: as §1
# [10] = test system: P. aeruginosa A19; experiment: agar disc-diffusion assay; type: cell-based; conditions: strain A19; 0.3, 3 and 30 μg of protein spotted on discs on CAA agar lawn, overnight
# In short: as §1
# [11] = test system: P. aeruginosa BI80; experiment: agar disc-diffusion assay; type: cell-based; conditions: strain BI80; 0.3, 3 and 30 μg of protein spotted on discs on CAA agar lawn, overnight
# In short: as §1
# [12] = test system: P. aeruginosa ATCC 27853; experiment: murine lung colonization and treatment (CD1 mice); type: in vivo; conditions: 5 h post infection
# Description: CD1 male mice were supplied by Charles River (Margate, UK) and were specific pathogen free. Mice were 11 to 15 g on receipt at the facility and were allowed to acclimatize for at least 7 days.
# P. aeruginosa ATCC 27853 was recovered from long-term storage (−80° C.) and cultured on cystine-lactose-electrolyte-deficient (CLED) agar at 37° C. under aerobic conditions for approximately 16-24 h. 20 ml of Mueller Hinton broth was inoculated with a single well isolated colony and cultured overnight at 37° C. with shaking at 300 rpm65. The overnight broth was diluted 1:100 in Mueller Hinton broth and 100 ml was cultured in a baffle flask for ˜6 h at 37° C. with shaking at 300 rpm until the broth OD was ˜0.6 (˜mid-exponential phase). 20 ml of culture was centrifuged at 2465 g for 10 minutes and washed in PBS. The pellet was suspended in PBS and the OD600 adjusted to 0.67 (˜2.6×10^8 CFU/ml). The study inoculum was prepared from this by appropriate dilution with PBS. The inoculum concentration was confirmed by quantitative culture on Pseudomonas Selective Agar (PSA). The inoculum concentration for the study was 1.47×10^7 CFU/ml (5.87×10^5 CFU/mouse).
# Mice were infected under temporary inhaled 3% isoflurane anesthesia by intranasal (IN) instillation with 40 μl of the inoculum suspension split as 20 μl/nostril.
# 1 hour post infection 6 mice were sacrificed in order to evaluate the pre-treatment burden in lungs. Treatments were administered IN once at 1 h post infection (50 μl split to 25 μl/nares). Three treatment groups consisting of six mice each were administered S5-PmnH (2.5, 25 and 250 μg). The fourth group of mice (n=6) was administered 200 μg Tobramycin (40 mg/ml injection solution, Hospira UK Ltd, diluted 10 times). The study was terminated at 5 hours post infection for all animals. The clinical conditions and weights were assessed and animals were immediately euthanized using an overdose of pentobarbitone. Following confirmation of death, the lungs were excised and homogenized in ice cold sterile phosphate buffered saline using a Precellys bead beater. The homogenates were quantitatively cultured onto PSA agar and incubated at 37° C. for 24 hours before colonies were counted.
molecule,measurement,setting,value
B1,inhibition on lawns of S5 producer strains HP6 and HP7,"[1]; clinical isolates HP6 and HP7, S5 gave turbid zones with 3 μg and 30 μg",significantly larger and clearer than those formed by S5
same,activity spectrum / profile in agar disc diffusion assay,"[1]; panel of 25 P. aeruginosa strains, in words",broadened activity spectrum in comparison to pyocin S5
same,inhibition zones on lawns of S5-producing strains,"[1]; six pyocin S5 and immunity gene-positive strains (PA14, PAO1, HP6, HP7, ATCC 19660, NCTC 13921)",formed inhibition zones on the lawns of all six S5-producing strains
same,Activity in agar disc-diffusion assay,[2],*** (activity detected with 0.3 μg of protein)
same,Activity in agar disc-diffusion assay,[3],** (activity detected with 3 μg of protein)
same,Activity in agar disc-diffusion assay,[4],*** (activity detected with 0.3 μg of protein)
same,Activity in agar disc-diffusion assay,[5],* (activity detected only with 30 μg of protein)
same,Activity in agar disc-diffusion assay,[6],*** (activity detected with 0.3 μg of protein)
same,Activity in agar disc-diffusion assay,[7],*** (activity detected with 0.3 μg of protein)
same,Activity in agar disc-diffusion assay,[8],** (activity detected with 3 μg of protein)
same,Activity in agar disc-diffusion assay,[9],*** (activity detected with 0.3 μg of protein)
same,Activity in agar disc-diffusion assay,[10],*** (activity detected with 0.3 μg of protein)
same,Activity in agar disc-diffusion assay,[11],*** (activity detected with 0.3 μg of protein)
same,reduction of lung burden vs vehicle,[12]; 2.5 μg/mouse IN once 1 h post infection,2.1 log10 CFU/g
same,reduction of burden below the level of stasis (pre-treatment),[12]; 2.5 μg/mouse IN once,0.58 log10 CFU/g
same,reduction of lung burden vs vehicle,[12]; 25 μg/mouse IN once 1 h post infection,2.31 log10 CFU/g
same,reduction of burden below the level of stasis (pre-treatment),[12]; 25 μg/mouse IN once,0.78 log10 CFU/g
same,reduction of lung burden vs vehicle,[12]; 250 μg/mouse IN once 1 h post infection,2.66 log10 CFU/g
same,reduction of burden below the level of stasis (pre-treatment),[12]; 250 μg/mouse IN once,1.13 log10 CFU/g
